Laboratory results from patent US20200247855A1, “THERAPY AND DIAGNOSTICS” (OXFORD UNIVERSITY INNOVATION LIMITED, priority 2017, published 2020).
Like-named read-outs stand apart in the source and are kept apart here.

Tests used:
[1] = molecular target: CCL2_HUMAN (Homo sapiens, UniProt P13500); assay: Biolayer interferometry (BLI) binding
Summary of the method: (§1)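 Ni-NTA biosensor loaded with His-tagged tick chemokine-binding protein; 300 nM chemokine cross-binding screen; hits repeated with chemokine dose series; Kd from fitted kinetic and equilibrium data.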

[2] = molecular target: T1, CCL23_HUMAN (Homo sapiens, UniProt P55773); assay: Biolayer interferometry (BLI) binding
T1 sequence (P55773 22-120): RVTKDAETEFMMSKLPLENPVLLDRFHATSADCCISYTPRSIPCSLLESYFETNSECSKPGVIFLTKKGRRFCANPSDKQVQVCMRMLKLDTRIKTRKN
Summary of the method: as §1

[3] = molecular target: T2, CCL4_HUMAN (Homo sapiens, UniProt P13236); assay: Biolayer interferometry (BLI) binding
T2 sequence (P13236 24-92): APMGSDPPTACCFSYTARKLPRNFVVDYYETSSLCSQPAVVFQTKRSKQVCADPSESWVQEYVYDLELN
Summary of the method: as §1

[4] = molecular target: T3, CCL4L1_HUMAN (Homo sapiens, UniProt Q8NHW4); assay: Biolayer interferometry (BLI) binding
T3 sequence (Q8NHW4 24-92): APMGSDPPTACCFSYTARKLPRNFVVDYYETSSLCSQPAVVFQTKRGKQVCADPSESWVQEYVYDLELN
Summary of the method: as §1

[5] = molecular target: T4, CCL17_HUMAN (Homo sapiens, UniProt Q92583); assay: Biolayer interferometry (BLI) binding
T4 sequence (Q92583 24-94): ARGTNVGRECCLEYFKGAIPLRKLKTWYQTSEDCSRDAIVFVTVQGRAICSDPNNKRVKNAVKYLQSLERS
Summary of the method: as §1

[6] = molecular target: T5, CCL18_HUMAN (Homo sapiens, UniProt P55774); assay: Biolayer interferometry (BLI) binding
T5 sequence (P55774 21-89): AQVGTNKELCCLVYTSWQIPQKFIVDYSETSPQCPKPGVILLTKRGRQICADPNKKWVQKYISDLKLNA
Summary of the method: as §1

[7] = molecular target: T6, CCL1_HUMAN (Homo sapiens, UniProt P22362); assay: Biolayer interferometry (BLI) binding
T6 sequence (P22362 24-96): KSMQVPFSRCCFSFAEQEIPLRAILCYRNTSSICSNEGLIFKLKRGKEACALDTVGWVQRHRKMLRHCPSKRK
Summary of the method: as §1

[8] = molecular target: T7, CCL22_HUMAN (Homo sapiens, UniProt O00626); assay: Biolayer interferometry (BLI) binding
T7 sequence (O00626 25-93): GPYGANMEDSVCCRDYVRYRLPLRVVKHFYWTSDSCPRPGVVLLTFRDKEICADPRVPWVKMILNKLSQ
Summary of the method: as §1

[9] = molecular target: T8, CCL24_HUMAN (Homo sapiens, UniProt O00175); assay: Biolayer interferometry (BLI) binding
T8 sequence (O00175 27-119): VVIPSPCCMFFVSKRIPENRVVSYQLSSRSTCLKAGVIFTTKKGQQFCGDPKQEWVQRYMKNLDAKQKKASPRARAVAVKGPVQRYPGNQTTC
Summary of the method: as §1

[10] = molecular target: CCL20_HUMAN (Homo sapiens, UniProt P78556); assay: Biolayer interferometry (BLI) binding
Summary of the method: as §1

[11] = molecular target: T1, CCL23_HUMAN; conditions: read-out: Kd, CCL23_HUMAN, previously described evasins; data obtained from publications [20-22,32]; cited from earlier work

Sequence of CCL20_HUMAN (P78556 27-96): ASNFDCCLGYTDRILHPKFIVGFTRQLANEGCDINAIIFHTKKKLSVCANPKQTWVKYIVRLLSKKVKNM
Sequence of CCL2_HUMAN (P13500 24-99): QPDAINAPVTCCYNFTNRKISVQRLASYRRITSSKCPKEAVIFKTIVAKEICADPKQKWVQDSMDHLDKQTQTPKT

B1: P672_RHIPU: tick CKBP, Rhipicephalus pulchellus (protein, listed as Rhipicephalus pulchellus)
chain: VCEVSEQEGVGEDNATEDEDYEDFFKPVTCYFANSTVGPLRPPNCTVVCTNNTAWWNDTKSDGGHCYSEYRPEKRTHSREIYNCTIGVCGNGTCIANHTYADCW
- Kd [1]: 9.1 nM
- Kd [2]: 10 nM

B2: P1243_AMBAM: tick CKBP, Amblyomma americanum; AAM-02 stated identical (protein, listed as Amblyomma americanum)
chain: RNHTEDNSTEYYDYEEARCACPARHLNNTNGTVLKLLGCHYFCNGTLCTAPDGYPCYNLTAQQVRTLTTYPNTSCAVGVCMKGTCVKNGTMEQCFKTP
- Kd [3]: 15.3 nM
- Kd [4]: 35.4 nM
- Kd [5]: 0.734 nM
- Kd [6]: 0.00501 nM
- Kd [7]: 21.3 nM
- Kd [8]: 22.3 nM
- Kd [9]: 7.39 nM
- Kd [10]: 8.34 nM

B3: EVASIN4: previously described tick CKBP evasin 4, from Rhipicephalus sanguineus (protein, listed as Rhipicephalus sanguineus)
chain: EVPQMTSSSAPDLEEEDDYTAYAPLTCYFTNSTLGLLAPPNCSVLCNSTTTWFNETSPNNASCLLTVDFLTQDAILQENQPYNCSVGHCDNGTCAGPPRHAQCW
- Kd [11]: 4.43 nM
